{"source": "patent US20260055188A1", "target": "Human-TNFR2-His (manufacturer: SINO, CAT: 10417-H08H) (human) (UniProt P20333)", "test": "flow cytometry, bridging: CHOK1-18.2 cells (human Claudin18.2) + 150 nM isotype control + human TNFR2-His, anti-His FITC detection; irrelevant antibody (blank 13476)", "data": [{"substance": "Human IgG1 kappa Isotype control (Sino Biological, Cat. No.: HG1K) (antibody)", "values": [{"measurement": "E1 Mean FITC-A", "result": 14400}]}]}
